Experimental data as given in article PMC12464994, “Quantification of Membrane Protein Conformational Free Energy from Mutations and a Single Atom” (Journal of the American Chemical Society, 2025).

T1: EmrE^W63 (EmrE W31F/W45F/W76F), natural abundance (E. coli, UniProt P23895 1-110, W31F | W45F | W76F)
T1 construct: EmrE, small multidrug resistance (SMR) transporter of E. coli; only Trp63 kept of the four tryptophans; NMR-silent partner in the mixed (heterodimer) samples; reconstituted in 14:0-PC/6:0-PC bicelles; also called unlabeled EmrE^W63; natural abundance EmrE^W63; source: E. coli BL21(DE3), LB medium, purified (amylose column, TEV cleavage, SEC in DDM)
T1 sequence: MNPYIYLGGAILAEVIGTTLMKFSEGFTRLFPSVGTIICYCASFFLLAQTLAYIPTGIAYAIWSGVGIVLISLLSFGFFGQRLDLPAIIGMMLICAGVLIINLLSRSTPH

T2: EmrE^(W63, L51I), natural abundance (E. coli, UniProt P23895 1-110, W31F | W45F | W76F | L51I)
T2 construct: EmrE, small multidrug resistance (SMR) transporter of E. coli; EmrE^W63 background with L51I; also called natural abundance EmrE^(W63, L51I); source: E. coli BL21(DE3), purified (amylose column, TEV cleavage, SEC in DDM)
T2 sequence: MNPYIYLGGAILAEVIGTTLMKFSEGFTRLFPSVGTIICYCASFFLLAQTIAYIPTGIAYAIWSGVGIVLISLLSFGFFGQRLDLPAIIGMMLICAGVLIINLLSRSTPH

T3: EmrE^(W63, E14Q), natural abundance (E. coli, UniProt P23895 1-110, W31F | W45F | W76F | E14Q)
T3 construct: EmrE, small multidrug resistance (SMR) transporter of E. coli; EmrE^W63 background with E14Q; also called natural abundance EmrE^(W63, E14Q); source: E. coli BL21(DE3), purified (amylose column, TEV cleavage, SEC in DDM)
T3 sequence: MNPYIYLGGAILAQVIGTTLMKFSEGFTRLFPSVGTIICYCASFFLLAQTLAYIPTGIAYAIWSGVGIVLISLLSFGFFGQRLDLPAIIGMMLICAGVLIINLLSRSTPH

B1: 5FW-EmrE^W63 (EmrE W31F/W45F/W76F labeled with 5-fluoro-tryptophan at Trp63) (natural protein, E. coli)
chain: MNPYIYLGGAILAEVIGTTLMKFSEGFTRLFPSVGTIICYCASFFLLAQTLAYIPTGIAYAIWSGVGIVLISLLSFGFFGQRLDLPAIIGMMLICAGVLIINLLSRSTPH
modifications: 5-fluoro-tryptophan at Trp63
notes: EmrE, small multidrug resistance (SMR) transporter of E. coli; only Trp63 kept of the four tryptophans; also called 5FW-labeled EmrE^W63; source: E. coli BL21(DE3), M9 medium with glyphosate and fluoro-indole, purified (amylose column, TEV cleavage, SEC in DDM)
B2: 6FW-EmrE^W63 (EmrE W31F/W45F/W76F labeled with 6-fluoro-tryptophan at Trp63) (natural protein, E. coli)
chain: MNPYIYLGGAILAEVIGTTLMKFSEGFTRLFPSVGTIICYCASFFLLAQTLAYIPTGIAYAIWSGVGIVLISLLSFGFFGQRLDLPAIIGMMLICAGVLIINLLSRSTPH
modifications: 6-fluoro-tryptophan at Trp63
notes: EmrE, small multidrug resistance (SMR) transporter of E. coli; only Trp63 kept of the four tryptophans; also called 6FW-labeled EmrE^W63; source: E. coli BL21(DE3), M9 medium with glyphosate and fluoro-indole, purified (amylose column, TEV cleavage, SEC in DDM)
B3: 5FW-EmrE^(W63, L51I) (natural protein, E. coli)
chain: MNPYIYLGGAILAEVIGTTLMKFSEGFTRLFPSVGTIICYCASFFLLAQTIAYIPTGIAYAIWSGVGIVLISLLSFGFFGQRLDLPAIIGMMLICAGVLIINLLSRSTPH
modifications: 5-fluoro-tryptophan at Trp63
notes: EmrE, small multidrug resistance (SMR) transporter of E. coli; EmrE^W63 background with L51I; source: E. coli BL21(DE3), M9 medium with glyphosate and fluoro-indole, purified (amylose column, TEV cleavage, SEC in DDM)
B4: 5FW-EmrE^(W63, E14Q) (natural protein, E. coli)
chain: MNPYIYLGGAILAQVIGTTLMKFSEGFTRLFPSVGTIICYCASFFLLAQTLAYIPTGIAYAIWSGVGIVLISLLSFGFFGQRLDLPAIIGMMLICAGVLIINLLSRSTPH
modifications: 5-fluoro-tryptophan at Trp63
notes: EmrE, small multidrug resistance (SMR) transporter of E. coli; EmrE^W63 background with E14Q; also called Gln14 mutant monomer; source: E. coli BL21(DE3), M9 medium with glyphosate and fluoro-indole, purified (amylose column, TEV cleavage, SEC in DDM)

Assays:
Experiment in all cases: 19F NMR spectroscopy (one-dimensional spectra and 19F/19F ZZ-exchange/NOESY); proteins alone or mixed in DDM (1 h, 37 °C, 10 mM DTT) at stated molar ratios, reconstituted in 14:0-PC/6:0-PC isotropic bicelles (q = 0.33); pH 5.6; 37 °C; 1-2 mM protein; 150 mM Na2HPO4, 20 mM NaCl
[1] = molecular target: T1, EmrE^W63 (EmrE W31F/W45F/W76F), natural …; conditions: both partners purified
[2] = molecular target: T2, EmrE^(W63, L51I), natural abundance; conditions: both partners purified
[3] = molecular target: T3, EmrE^(W63, E14Q), natural abundance; conditions: both partners purified
[4] = molecular target: the molecule itself
[5] = molecular target: B2; conditions: both partners purified

Row | Binder | binding result [1] | binding result [2] | binding result [3] | binding result [4] | binding result [5]
1 | B1 | binds | binds | binds | binds | –
2 | B2 | binds | – | – | binds | –
3 | B3 | binds | – | – | binds | binds
4 | B4 | binds | – | – | binds | –
